Patent US9820934B2, “Acid containing lipid formulations” (CAMURUS AB, priority 2007, dated 2017)

Experiment: Dissolution of GLP-1 in lipid formulation containing P80 and MeSulf (visual: homogenous, transparent)
Type: physicochemical
Conditions: SPC/GDO/P80/EtOH/PG/MeSulf=41.0/41.0/5.0/3.0/10.0/0.5 wt %; nominal loads 3, 4, 5 and 6 wt % GLP-1(0); room temperature, 1-3 days
Source text: The lipid composition was the following: SPC/GDO/P80/EtOH/PG/MeSulf=41.0/41.0/5.0/3.0/10.0/0.5 wt %.

GLP-1(7-36)amide, acetate salt [GLP-1(Ac)]
Dissolution of GLP-1 in the lipid formulation: complete dissolution
